Key:
[1] = format: physicochemical; conditions: N = 90/x, ~90 DSPE-PEG2000 monomers per SSM, x = lipid molecules at saturation
[2] = cited from earlier work

Human neuropeptide Y [NPY]
maximal number of NPY molecules that could self-associate with one SSM [1]: three | half-life in vivo [2]: minutes
